Here are results for seven variants from IntAct's records for PubMed 25416956.

B1: X-linked retinitis pigmentosa GTPase regulator (Homo sapiens), Q92834 (parent)
chain: MREPEELMPDSGAVFTFGKSKFAENNPGKFWFKNDVPVHLSCGDEHSAVVTGNNKLYMFGSNNWGQLGLGSKSAISKPTCVKALKPEKVKLAACGRNHTLVSTEGGNVYATGGNNEGQLGLGDTEERNTFHVISFFTSEHKIKQLSAGSNTSAALTEDGRLFMWGDNSEGQIGLKNVSNVCVPQQVTIGKPVSWISCGYYHSAFVTTDGELYVFGEPENGKLGLPNQLLGNHRTPQLVSEIPEKVIQVACGGEHTVVLTENAVYTFGLGQFGQLGLGTFLFETSEPKVIENIRDQTISYISCGENHTALITDIGLMYTFGDGRHGKLGLGLENFTNHFIPTLCSNFLRFIVKLVACGGCHMVVFAAPHRGVAKEIEFDEINDTCLSVATFLPYSSLTSGNVLQRTLSARMRRRERERSPDSFSMRRTLPPIEGTLGLSACFLPNSVFPRCSERNLQESVLSEQDLMQPEEPDYLLDEMTKEAEIDNSSTVESLGETTDILNMTHIMSLNSNEKSLKLSPVQKQKKQQTIGELTQDTALTENDDSDEYEEMSEMKEGKACKQHVSQGIFMTQPATTIEAFSDEEVGNDTGQVGPQADTDGEGLQKEVYRHENNNGVDQLDAKEIEKESDGGHSQKESEAEEIDSEKETKLAEIAGMKDLREREKSTKKMSPFFGNLPDRGMNTESEENKDFVKKRESCKQDVIFDSERESVEKPDSYMEGASESQQGIADGFQQPEAIEFSSGEKEDDEVETDQNIRYGRKLIEQGNEKETKPIISKSMAKYDFKCDRLSEIPEEKEGAEDSKGNGIEEQEVEANEENVKVHGGRKEKTEILSDDLTDKAEDHEFSKTEELKLEDVDEEINAENVESKKKTVGDDESVPTGYHSKTEGAERTNDDSSAETIEKKEKANLEERAICEYNENPKGYMLDDADSSSLEILENSETTPSKDMKKTKKIFLFKRVPSINQKIVKNNNEPLPEIKSIGDQIILKSDNKDADQNHMSQNHQNIPPTNTERRSKSCTIL
partner: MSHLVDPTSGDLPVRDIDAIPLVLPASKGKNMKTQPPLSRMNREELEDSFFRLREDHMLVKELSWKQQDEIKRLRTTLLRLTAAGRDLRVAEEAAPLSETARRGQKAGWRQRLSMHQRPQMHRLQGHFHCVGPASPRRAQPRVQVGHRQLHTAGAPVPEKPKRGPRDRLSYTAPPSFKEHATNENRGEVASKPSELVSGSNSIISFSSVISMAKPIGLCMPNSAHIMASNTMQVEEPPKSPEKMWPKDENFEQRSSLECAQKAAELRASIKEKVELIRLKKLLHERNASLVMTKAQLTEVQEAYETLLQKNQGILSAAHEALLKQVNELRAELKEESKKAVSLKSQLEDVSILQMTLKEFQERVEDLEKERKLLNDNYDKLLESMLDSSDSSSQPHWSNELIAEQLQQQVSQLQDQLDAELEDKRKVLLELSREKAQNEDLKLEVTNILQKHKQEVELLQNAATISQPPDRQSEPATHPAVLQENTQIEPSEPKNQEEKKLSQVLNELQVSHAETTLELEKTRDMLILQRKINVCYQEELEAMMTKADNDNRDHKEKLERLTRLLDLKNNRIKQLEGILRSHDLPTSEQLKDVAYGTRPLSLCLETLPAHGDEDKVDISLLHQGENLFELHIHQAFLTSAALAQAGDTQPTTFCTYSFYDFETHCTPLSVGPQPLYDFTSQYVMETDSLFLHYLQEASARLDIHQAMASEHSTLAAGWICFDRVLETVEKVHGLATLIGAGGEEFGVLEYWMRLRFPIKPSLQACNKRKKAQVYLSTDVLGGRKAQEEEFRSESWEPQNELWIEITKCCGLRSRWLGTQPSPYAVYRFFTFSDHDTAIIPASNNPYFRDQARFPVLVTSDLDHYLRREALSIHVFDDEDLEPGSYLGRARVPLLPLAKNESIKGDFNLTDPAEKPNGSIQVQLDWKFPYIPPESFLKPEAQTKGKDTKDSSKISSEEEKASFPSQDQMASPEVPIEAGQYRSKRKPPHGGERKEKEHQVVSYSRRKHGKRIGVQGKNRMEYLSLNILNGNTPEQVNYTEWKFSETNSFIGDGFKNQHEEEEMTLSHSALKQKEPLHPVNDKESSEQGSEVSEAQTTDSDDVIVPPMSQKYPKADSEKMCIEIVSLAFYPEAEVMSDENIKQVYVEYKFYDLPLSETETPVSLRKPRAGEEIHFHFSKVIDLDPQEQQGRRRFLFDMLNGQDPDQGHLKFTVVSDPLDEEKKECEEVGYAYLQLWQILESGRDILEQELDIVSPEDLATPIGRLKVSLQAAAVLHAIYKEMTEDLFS
B2: Beta-crystallin A4 (Homo sapiens), P53673 (parent)
chain: MTLQCTKSAGPWKMVVWDEDGFQGRRHEFTAECPSVLELGFETVRSLKVLSGAWVGFEHAGFQGQQYILERGEYPSWDAWGGNTAYPAERLTSFRPAACANHRDSRLTIFEQENFLGKKGELSDDYPSLQAMGWEGNEVGSFHVHSGAWVCSQFPGYRGFQYVLECDHHSGDYKHFREWGSHAPTFQVQSIRRIQQ
partner: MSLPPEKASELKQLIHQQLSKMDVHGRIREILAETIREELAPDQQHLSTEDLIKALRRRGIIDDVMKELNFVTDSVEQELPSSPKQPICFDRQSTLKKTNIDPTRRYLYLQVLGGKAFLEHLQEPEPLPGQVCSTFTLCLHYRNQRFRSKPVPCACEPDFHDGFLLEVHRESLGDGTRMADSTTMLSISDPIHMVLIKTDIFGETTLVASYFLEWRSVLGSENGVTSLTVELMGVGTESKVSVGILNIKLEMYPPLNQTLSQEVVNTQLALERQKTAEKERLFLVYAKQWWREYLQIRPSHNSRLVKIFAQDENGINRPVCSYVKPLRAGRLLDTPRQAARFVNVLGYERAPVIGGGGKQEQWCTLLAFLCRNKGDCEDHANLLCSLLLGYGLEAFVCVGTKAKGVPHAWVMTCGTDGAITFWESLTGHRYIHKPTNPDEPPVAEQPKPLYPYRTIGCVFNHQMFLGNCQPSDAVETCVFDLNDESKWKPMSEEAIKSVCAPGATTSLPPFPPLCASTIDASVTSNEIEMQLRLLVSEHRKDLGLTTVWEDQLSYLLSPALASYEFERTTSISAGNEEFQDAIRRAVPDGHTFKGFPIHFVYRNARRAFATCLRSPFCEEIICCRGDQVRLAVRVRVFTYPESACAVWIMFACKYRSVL
B3: Plakophilin-2 (Homo sapiens), Q99959 (parent)
chain: MAAPGAPAEYGYIRTVLGQQILGQLDSSSLALPSEAKLKLAGSSGRGGQTVKSLRIQEQVQQTLARKGRSSVGNGNLHRTSSVPEYVYNLHLVENDFVGGRSPVPKTYDMLKAGTTATYEGRWGRGTAQYSSQKSVEERSLRHPLRRLEISPDSSPERAHYTHSDYQYSQRSQAGHTLHHQESRRAALLVPPRYARSEIVGVSRAGTTSRQRHFDTYHRQYQHGSVSDTVFDSIPANPALLTYPRPGTSRSMGNLLEKENYLTAGLTVGQVRPLVPLQPVTQNRASRSSWHQSSFHSTRTLREAGPSVAVDSSGRRAHLTVGQAAAGGSGNLLTERSTFTDSQLGNADMEMTLERAVSMLEADHMLPSRISAAATFIQHECFQKSEARKRVNQLRGILKLLQLLKVQNEDVQRAVCGALRNLVFEDNDNKLEVAELNGVPRLLQVLKQTRDLETKKQITDHTVNLRSRNGWPGAVAHACNPSTLGGQGGRITRSGVRDQPDQHGLLWNLSSNDKLKNLMITEALLTLTENIIIPFSGWPEGDYPKANGLLDFDIFYNVTGCLRNMSSAGADGRKAMRRCDGLIDSLVHYVRGTIADYQPDDKATENCVCILHNLSYQLEAELPEKYSQNIYIQNRNIQTDNNKSIGCFGSRSRKVKEQYQDVPMPEEKSNPKGVEWLWHSIVIRMYLSLIAKSVRNYTQEASLGALQNLTAGSGPMPTSVAQTVVQKESGLQHTRKMLHVGDPSVKKTAISLLRNLSRNLSLQNEIAKETLPDLVSIIPDTVPSTDLLIETTASACYTLNNIIQNSYQNARDLLNTGGIQKIMAISAGDAYASNKASKAASVLLYSLWAHTELHHAYKKAQFKKTDFVNSRTAKAYHSLKD
partner: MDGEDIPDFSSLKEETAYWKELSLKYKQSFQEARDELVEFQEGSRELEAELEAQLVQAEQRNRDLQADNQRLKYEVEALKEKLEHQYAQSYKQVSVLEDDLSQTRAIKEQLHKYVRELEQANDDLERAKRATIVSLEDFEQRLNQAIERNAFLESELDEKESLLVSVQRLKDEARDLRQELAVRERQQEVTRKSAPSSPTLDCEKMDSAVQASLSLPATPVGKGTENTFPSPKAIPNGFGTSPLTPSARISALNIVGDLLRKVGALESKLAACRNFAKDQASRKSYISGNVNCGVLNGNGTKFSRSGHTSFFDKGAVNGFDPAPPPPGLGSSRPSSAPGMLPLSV
B4: Lipopolysaccharide-induced tumor necrosis factor-alpha factor (Homo sapiens), Q99732 (parent)
chain: MSVPGPYQAATGPSSAPSAPPSYEETVAVNSYYPTPPAPMPGPTTGLVTGPDGKGMNPPSYYTQPAPIPNNNPITVQTVYVQHPITFLDRPIQMCCPSCNKMIVSQLSYNAGALTWLSCGSLCLLGCIAGCCFIPFCVDALQDVDHYCPNCRALLGTYKRL

In the first experiment the parent is B1. The note with it: with rpgr1_human RPGRIP1, Q96KN7.
With T255I, the “effect of a mutation on the interaction” value is “disrupting interaction”.

Another experiment covers variants of B2. The note with it: with cep76_human CEP76, Q8TAP6.
Turning to F94S, the “effect of a mutation on the interaction” value is given as “disrupting interaction”.

In the next experiment the parent is B2. To be noted: with cep76_human CEP76, Q8TAP6. This is another data set of the same source.
As for L69P, the “effect of a mutation on the interaction” value was “disrupting interaction”.

A further experiment covers variants of B2. To be noted: with cep76_human CEP76, Q8TAP6. The source holds these as a separate data set.
Regarding V36M, the “effect of a mutation on the interaction” value is “disrupting interaction”.

The variants in another experiment derive from B3. The note with it: with ndel1_human NDEL1, Q9GZM8.
For S140F, the “effect of a mutation on the interaction” value was “disrupting interaction”.

The variants in the next experiment derive from B3. The note with it: with ndel1_human NDEL1, Q9GZM8. This is another data set of the same source.
For the variant S644P, the “effect of a mutation on the interaction” value is recorded as “disrupting interaction”.

In another experiment the parent is B4. The note with it: with hgs_human HGS.
Take G112S: the “effect of a mutation on the interaction” value is on record as “disrupting interaction”.

The variants in another experiment derive from B4. The note with it: with stam2_human STAM2, O75886.
In the case of G112S, the “effect of a mutation on the interaction” value was “disrupting interaction”.

The variants in the next experiment derive from B4. The note with it: with reep6_human REEP6, Q96HR9.
Chain of reep6_human REEP6, Q96HR9 (Q96HR9 whole entry): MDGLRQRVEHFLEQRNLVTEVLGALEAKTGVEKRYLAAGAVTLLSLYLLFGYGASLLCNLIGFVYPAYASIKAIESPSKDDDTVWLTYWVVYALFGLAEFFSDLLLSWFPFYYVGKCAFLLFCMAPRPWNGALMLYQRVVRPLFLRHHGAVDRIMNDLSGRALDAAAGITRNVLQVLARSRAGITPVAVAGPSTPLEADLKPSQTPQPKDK
In the case of G112S, the “effect of a mutation on the interaction” value was “disrupting interaction”.

A further experiment covers variants of B4. To be noted: with UBQLN1, Q9UMX0-2.
Chain of UBQLN1, Q9UMX0-2 (Q9UMX0 other isoform, or with tags, fused parts or gaps): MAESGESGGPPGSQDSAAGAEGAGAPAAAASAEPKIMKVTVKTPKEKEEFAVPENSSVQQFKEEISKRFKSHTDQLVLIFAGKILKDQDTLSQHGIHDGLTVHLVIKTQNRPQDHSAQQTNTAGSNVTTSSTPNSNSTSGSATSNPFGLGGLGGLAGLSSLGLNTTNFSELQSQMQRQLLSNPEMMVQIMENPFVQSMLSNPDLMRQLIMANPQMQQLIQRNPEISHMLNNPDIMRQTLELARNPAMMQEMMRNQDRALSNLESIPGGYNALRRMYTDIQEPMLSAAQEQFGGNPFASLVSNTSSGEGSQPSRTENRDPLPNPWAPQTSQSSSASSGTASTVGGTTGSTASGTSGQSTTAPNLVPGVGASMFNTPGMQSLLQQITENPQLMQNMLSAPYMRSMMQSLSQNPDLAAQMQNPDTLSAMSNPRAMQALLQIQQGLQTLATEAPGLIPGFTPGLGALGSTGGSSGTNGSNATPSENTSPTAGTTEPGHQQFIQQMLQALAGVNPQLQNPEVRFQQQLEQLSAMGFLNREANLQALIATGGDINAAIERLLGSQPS
Take G112S: the “effect of a mutation on the interaction” value is “disrupting interaction”.

A further experiment covers variants of B4. To be noted: with ubql1_human UBQLN1, Q9UMX0.
Chain of ubql1_human UBQLN1, Q9UMX0 (Q9UMX0 whole entry): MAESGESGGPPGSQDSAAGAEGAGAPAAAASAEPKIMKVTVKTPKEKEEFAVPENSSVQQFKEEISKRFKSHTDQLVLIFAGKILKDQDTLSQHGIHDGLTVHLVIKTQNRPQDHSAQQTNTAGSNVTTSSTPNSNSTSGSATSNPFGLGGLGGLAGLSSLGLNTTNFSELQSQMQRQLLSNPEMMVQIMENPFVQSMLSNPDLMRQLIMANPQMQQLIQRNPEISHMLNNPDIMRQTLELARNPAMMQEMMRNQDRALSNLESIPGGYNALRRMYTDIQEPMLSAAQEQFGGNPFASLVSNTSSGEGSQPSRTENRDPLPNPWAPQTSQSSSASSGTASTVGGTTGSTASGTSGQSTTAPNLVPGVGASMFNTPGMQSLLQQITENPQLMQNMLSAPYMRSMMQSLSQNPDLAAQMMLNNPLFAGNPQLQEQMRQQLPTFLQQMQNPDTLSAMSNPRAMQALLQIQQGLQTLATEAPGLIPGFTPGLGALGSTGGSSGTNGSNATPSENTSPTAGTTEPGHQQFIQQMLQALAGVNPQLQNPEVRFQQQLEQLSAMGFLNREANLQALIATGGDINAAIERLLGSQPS
G112S: the “effect of a mutation on the interaction” value was “disrupting interaction”.
